Measurements from patent US20110065645A1, “Compositions and Methods for Modulating Neuron Degeneration and Neuron Guidance” (The Regents of the University of California, priority 2009, published 2011).
Values belong to the molecule of their own block, whether it stands above or below them. Peptide text beside a SMILES is read from it. * marks the point of attachment. Cbz = O=C(OCc1ccccc1)*

How the values were obtained:
Assay type in all cases: cell-based
β-catenin = β-catenin immunostaining in commissural axon growth cones; conditions: bath application; LiCl 2 mM
Excerpt: To understand how atypical PKC/Par pathway regulates axon guidance, we set out to determine the subcellular localization of aPKC, their substrates and downstream cellular effectors. […] Thus, our high-resolution confocal imaging detects a tendency of β-catenin being concentrated to one side of the growth cone (FIG. 9A). It is possible that there is low level of Wnt proteins in the culture (many neurons express Wnts). […] Therefore, it is also possible that intrinsic aPKC signaling can create chirality within the growth cone with out extrinsic signals. Such intrinsic polarity may then robustly regulate cellular morphology upon directional instructions from the environment such as a Wnt gradient. It is well known that GSK3β phosphorylates β-catenin, which then leads to proteosome-mediated degradation of β-catenin. And it is also known that GSK3β is phosphorylated and inhibited by PKCζ^(1,2). Therefore, inhibiting GSK3β or the proteosome activity generally should increase β-catenin level throughout the growth cone, canceling the asymmetry. […] We are now testing the hypothesis that Wnt proteins may locally activate PKCζ, which then inhibits GSK3β and locally stabilizes β-catenin, which is part of the asymmetric cellular mechanism leading to directional choice of a growth cone. We examine the localization of β-catenin in post-crossing commissural axon growth cones in the “post-crossing” assay and “open-book” assays.

cortical neurons = assay: Cortical neuron death/survival assay under PKCζ inhibition (Tuj1, TUNEL, DAPI staining); conditions: for cell death induced by PKC inhibition: pretreatment before pseudosubstrate peptide
Excerpt: 1. PKCζ is required for survival of cortical neurons. E15.5 cortical neurons were dissociated and cultured for 2 days in the presence of various concentrations of a cell membrane penetrating myristoylated peptide derived in the pseudosubstrate domain of PKC (FIGS. 12A-12D). This peptide is a specific inhibitor of PKCζ.
2. Axon degeneration procedes cell body death when PKC is inhibited. We examined the timing of axon degeneration and cell body death. […] The death induced by PKCζ inhibition is much faster than Aβ peptide induced neuronal death (FIG. 12D), probably because the PKCζ is an essential kinase and peptide inhibition causes instant death, whereas Aβ has to bind to cell surface receptor and trigger a signaling cascade to cause death, which requires a longer time.
3. Wnts are trophic factors for cortical neurons. […] Nuclear shrinkage (pyknosis) is a hallmark of neuronal cell death. Using DAPI staining, we can visualize the cell nuclei (FIG. 14B). […] Initial cortical axons and dendrite form and grow but axons start to disintegrate at E18.5 (FIG. 14D, from Wang et al 2006),^(13) (FIGS. 12F, 12K). Based on our preliminary results, we propose that Wnts are not only axon guidance molecules but also regulate neuronal survival and axon degeneration acting via PKC (FIG. 15).
3. Survival and cell death assays for screening of monoclonal antibodies and small compounds. We use the same cell death/survival assay as described in FIGS. 12A-14D and use microtubule staining to analyze the integrity of microtubules, DAPI stain to measure the size of cell nuclei and TUNEL staining to assay cell death. Microtubule disassembly is quantified by staining intensity of Tuj1 and Tau antibodies. The size of cell nuclei is binned into difference sizes and the distribution of the nuclei size is used as quantification of pyknosis (FIG. 14C).

Fzd3 = target: T1, Fzd3 (Mus musculus, UniProt Q61086); assay: Surface biotinylation and avidin immunoprecipitation of Fzd3 in HEK293T cells; conditions: HEK293T co-transfection, Vgl2 value in the presence of Dvl1
T1 construct: expressed in transfected cells; host or cells: HEK293T
T1 sequence (Q61086 23-666): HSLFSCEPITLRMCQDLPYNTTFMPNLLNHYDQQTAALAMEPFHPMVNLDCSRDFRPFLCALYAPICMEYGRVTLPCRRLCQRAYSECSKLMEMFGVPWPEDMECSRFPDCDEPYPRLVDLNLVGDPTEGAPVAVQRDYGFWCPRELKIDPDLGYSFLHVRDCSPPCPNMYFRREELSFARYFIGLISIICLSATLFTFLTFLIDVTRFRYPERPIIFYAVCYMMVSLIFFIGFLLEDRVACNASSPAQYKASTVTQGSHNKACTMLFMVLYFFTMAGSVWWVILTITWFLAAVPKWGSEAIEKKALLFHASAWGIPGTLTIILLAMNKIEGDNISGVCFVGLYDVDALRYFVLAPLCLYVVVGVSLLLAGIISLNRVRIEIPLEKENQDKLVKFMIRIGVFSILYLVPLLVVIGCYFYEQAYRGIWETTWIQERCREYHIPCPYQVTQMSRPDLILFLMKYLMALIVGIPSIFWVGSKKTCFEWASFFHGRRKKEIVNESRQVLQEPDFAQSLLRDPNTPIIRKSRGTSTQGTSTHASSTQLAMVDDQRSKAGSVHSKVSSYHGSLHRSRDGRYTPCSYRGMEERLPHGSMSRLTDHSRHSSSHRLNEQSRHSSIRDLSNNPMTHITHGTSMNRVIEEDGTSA
Excerpt: Dvl and Vgl have antagonistic functions on Fzd3 phosphorylation. […] We transfected Fzd3-mCherry in HEK293T cells then surface biotinylated and immunoprecipitated (IP) the surface molecules with strepavidin-conjugated beads to obtain membrane-localized proteins. […] We tested whether these two Fzd3 bands represent phosphorylation states of the Frizzled3 protein, one being phosphorylated/hyperphosphorylated Fzd3 (p-Fzd3) and the other non-phosphorylated Fzd3. […] Phosphorylation of Fzds has been shown previously in Xenopus oocytes
It has been proposed that Frizzled internalization is necessary for PCP signaling and phenotypes (Gagliardi et al., 2008; Yu et al., 2007). However, it has never been directly tested whether the cell surface level of Fzd, the Wnt-PCP receptor, changes upon Wnt addition. By using our surface biotinylation and immunoprecipitation with avidin, we show here, 15 minutes after Wnt addition, cell surface level of Fzd3-EGFP is diminished (FIG. 18C, Avidin IP, lane 3 anti-EGFP IB). […] This Fzd3 receptor oscillation from and to the membrane appeared to be a Wnt-Fzd specific effect because a non-Wnt binding receptor, such as the Insulin receptor stayed the same throughout the Wnt stimulation (FIG. 18C, Avidin IP, anti-Insulin Rβ IB). The Wnt-dependent Fzd3 oscillation is quantified in FIG. 18D (cross symboled line). […] In addition, PCP components appeared to effect this Wnt dependent oscillation of Fzd3 to and from the membrane. When Dvl1 is over expressed with Fzd3, we found within 30 minutes Fzd3 is unable to be internalized (FIG. 25B, lanes 5-7 and line). However, upon the introduction of Vangl2 into the transfection mix, Fzd3 oscillation is resumed (FIG. 25B, lanes 8-10 and circle symboled line).
Surface biotinylation and immunopreciptiation. 30 hours after transfection with the indicated constructs into HEK293T cells (FuGene, Roche), followed by 8-hour incubation in Optimem and subsequent bath application of recombinant Wnt5a (R&D Systems), surface proteins were subsequently labeled on ice with 1 mg/ml of Sulfo-NHS-LC-Biotin reagent (Pierce). The cell lysates were collect over a period of 30 minutes on ice in the following lysis buffer: 20 mM Tris pH7.6, 150 mM NaCl, 1% Triton, 0.1% SDS, 2.5 mM EDTA, 2.5 mM EGTA, protease Inhibitors (Roche). For the membrane immunoprecipitation, 600 ug of protein extracts were incubated overnight and retrieved by NeutrAvidin-coated Agarose beads (Pierce), the bound fraction was boiled and loaded on SDS-PAGE gel and analyzed by western blot analysis. To visualize the input amount 20 ug of total lysate was loaded, and for the Avidin IPs the total amount was loaded for western blot analysis. The following primary antibodies were used for the immunoblots: α-Frizzled3 (Wang et al., 2006), α-Vangl2 (Santa Cruz), α-mCherry/DsRed (Clontech), α-Jun (Cell Signaling), α-phospho-Jun (Cell Signaling), α-JNK (Cell Signaling), α-phospho-JNK (Cell Signaling), α-Flag (Sigma), α-GAPDH (Chemicon), α-Insulin Rβ (Santa Cruz).

Molecule: CC(C)C[C@@H](C=O)NC(=O)[C@H](CC(C)C)NC(=O)[C@H](CC(C)C)NC(=O)OCc1ccccc1 [MG132, reference compound] (Cbz-Leu-Leu-Leu-aldehyde)
β-catenin level and asymmetry in the growth cone (β-catenin): elevated the level of β-catenin throughout the growth cone

Molecule: [Cl-].[Li+] [LiCl, reference compound]
pyknosis (nuclear shrinkage, DAPI staining, Image J) (cortical neurons; neuronal death induced by PKCζ inhibition): partially blocked
cell death induced by PKC inhibition (cortical neurons): block/reduce the cell death
β-catenin level and asymmetry in the growth cone (β-catenin): elevated the level of β-catenin throughout the growth cone

Fzd3 at the membrane relative to Fzd3-mCherry transfected alone (Fzd3): 2 fold
Molecule: Vgl2: Vang Gogh Like protein 2 expressed by transfection in HEK293T cells

Fzd3 at the membrane relative to Fzd3-mCherry transfected alone (Fzd3): 3 fold
Fzd3 at the membrane relative to Fzd3-mCherry transfected alone (Fzd3; listed as Dvl): approximately 3 fold
B1: Dvl1: Dvl1-EGFP expressed by transfection in HEK293T cells (protein)
chain: MAETKIIYHMDEEETPYLVKLPVAPERVTLADFKNVLSNRPVHAYKFFFKSMDQDFGVVKEEIFDDNAKLPCFNGRVVSWLVLAEGAHSDAGSQGTDSHTDLPPPLERTGGIGDSRPPSFHPNVASSRDGMDNETGTESMVSHRRERARRRNRDEAARTNGHPRGDRRRDLGLPPDSASTVLSSELESSSFIDSDEEDNTSRLSSSTEQSTSSRLVRKHKCRRRKQRLRQTDRASSFSSITDSTMSLNIITVTLNMERHHFLGISIVGQSNDRGDGGIYIGSIMKGGAVAADGRIEPGDMLLQVNDVNFENMSNDDAVRVLREIVSQTGPISLTVAKCWDPTPRSYFTIPRADPVRPIDPAAWLSHTAALTGALPRYGTSPCSSAITRTSSSSLTSSVPGAPQLEEAPLTVKSDMSAIVRVMQLPDSGLEIRDRMWLKITIANAVIGADVVDWLYTHVEGFKERREARKYASSMLKHGFLRHTVNKITFSEQCYYVFGDLCSNLASLNLNSGSSGASDQDTLAPLPHPSVPWPLGQGYPYQYPGPPPCFPPAYQDPGFSCGSGSAGSQQSEGSKSSGSTRSSHRTPGREERRATGAGGSGSESDHTVPSGSGSTGWWERPVSQLSRGSSPRSQASAVAPGLPPLHPLTKAYAVVGGPPGGPPVRELAAVPPELTGSRQSFQKAMGNPCEFFVDIM
modifications: left off: large carriers
notes: Dvl1-EGFP expressed by transfection in HEK293T cells

B2: sFPR2: a Wnt inhibitor, secreted Frizzled-related protein (protein, UniProt Q96HF1 25-295, looked up)
Secreted frizzled-related …: LFLFGQPDFSYKRSNCKPIPANLQLCHGIEYQNMRLPNLLGHETMKEVLEQAGAWIPLVMKQCHPDTKKFLCSLFAPVCLDDLDETIQPCHSLCVQVKDRCAPVMSAFGFPWPDMLECDRFPQDNDLCIPLASSDHLLPATEEAPKVCEACKNKNDDDNDIMETLCKNDFALKIKVKEITYINRDTKIILETKSKTIYKLNGVSERDLKKSVLWLKDSLQCTCEEMNDINAPYLVMGQKQGGELVITSVKRWQKGQREFKRISRSIRKLQC
β-catenin level and asymmetry in the growth cone (β-catenin): eliminated asymmetric distribution of β-catenin

B3: Wnt7a: recombinant Wnt7a (protein, UniProt O00755 32-349, looked up)
Protein Wnt-7a: LGASIICNKIPGLAPRQRAICQSRPDAIIVIGEGSQMGLDECQFQFRNGRWNCSALGERTVFGKELKVGSREAAFTYAIIAAGVAHAITAACTQGNLSDCGCDKEKQGQYHRDEGWKWGGCSADIRYGIGFAKVFVDAREIKQNARTLMNLHNNEAGRKILEENMKLECKCHGVSGSCTTKTCWTTLPQFRELGYVLKDKYNEAVHVEPVRASRNKRPTFLKIKKPLSYRKPMDTDLVYIEKSPNYCEEDPVTGSVGTQGRACNKTAPQASGCDLMCCGRGYNTHQYARVWQCNCKFHWCCYVKCNTCSERTEMYTCK
axon degeneration / reduction of microtubule staining (Tuj1) (cortical neurons; 5 um pseudosubstrate peptide): much less degeneration was seen
axons remaining judged by Tuj1 staining (cortical neurons; 10 um pseudosubstrate peptide): more axons still remain
cell death induced by PKC inhibition (cortical neurons): block/reduce the cell death
